Laboratory results as given in patent publication US20200270704A1 (published 2020).
Read-outs that look alike come from different tables or passages of the source.

Columns and labels:
NY-ESO-1 [1] = biological target: T1, NY-ESO-1 (human, UniProt P78358 1-180); test: SPR
NY-ESO-1 [2] = biological target: T1, NY-ESO-1; test: SPR; remark: listed apart in the source

T1 sequence (P78358 whole entry): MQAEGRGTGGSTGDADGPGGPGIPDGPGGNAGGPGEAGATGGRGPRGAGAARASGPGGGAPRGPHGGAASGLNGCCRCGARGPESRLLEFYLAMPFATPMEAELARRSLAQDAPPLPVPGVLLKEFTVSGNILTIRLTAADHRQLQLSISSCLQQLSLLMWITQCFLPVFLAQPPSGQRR

B1: BC2-3G1 (antibody, V domains shown)
VH: QVQLQQSGPGLVKPSQTLSLTCAISGDSVSSNSAAWNWIRQSPSRGLEWLGRTYYRSKWYNDYAVSVKSRITINPDTSKNQFSLQLNSVTPEDTAVYYCARDLGIAAAGDFDYWGQGTLVTVSS
VL: EIVLTQSPATLSLSPGERATLSCRASQGVSSYLAWYQQKPGQAPRLLIYDASNRATGIPARFSGSGSGTDFTLTISSLEPEDFAVYYCHQGSNWPTFGGGTKVEI
Kd (NY-ESO-1 [1]): 37 nM
Kd (NY-ESO-1 [2]): 37 nM
